B1: intracellular domain of the FAS/APO1 (CD95 receptor) (receptor, UniProt P25445 191-335, looked up)
chain: KRKEVQKTCRKHRKENQGSHESPTLNPETVAINLSDVDLSKYITTIAGVMTLSQVKGFVRKNGVNEAKIDEIKNDNVQDTAEQKVQLLRNWHQLHGKKEAYDTLIKDLKKANLCTLAEKIQTIILKDITSDSENSNFRNEIQSLV
notes: domain: intracellular domain; Two-hybrid construct
B2: TRAF3 (other, UniProt Q13114 1-568, looked up)
chain: MESSKKMDSPGALQTNPPLKLHTDRSAGTPVFVPEQGGYKEKFVKTVEDKYKCEKCHLVLCSPKQTECGHRFCESCMAALLSSSSPKCTACQESIVKDKVFKDNCCKREILALQIYCRNESRGCAEQLMLGHLLVHLKNDCHFEELPCVRPDCKEKVLRKDLRDHVEKACKYREATCSHCKSQVPMIALQKHEDTDCPCVVVSCPHKCSVQTLLRSELSAHLSECVNAPSTCSFKRYGCVFQGTNQQIKAHEASSAVQHVNLLKEWSNSLEKKVSLLQNESVEKNKSIQSLHNQICSFEIEIERQKEMLRNNESKILHLQRVIDSQAEKLKELDKEIRPFRQNWEEADSMKSSVESLQNRVTELESVDKSAGQVARNTGLLESQLSRHDQMLSVHDIRLADMDLRFQVLETASYNGVLIWKIRDYKRRKQEAVMGKTLSLYSQPFYTGYFGYKMCARVYLNGDGMGKGTHLSLFFVIMRGEYDALLPWPFKQKVTLMLMDQGSSRRHLGDAFKPDPNSSSFKKPTGEMNIASGCPVFVAQTVLENGTYIKDDTIFIKVIVDTSDLPDP
notes: Two-hybrid construct
B3: intracellular domain of the p75 TNF receptor (receptor, UniProt P20333 288-461, looked up)
chain: KKKPLCLQREAKVPHLPADKARGTQGPEQQHLLITAPSSSSSSLESSASALDRRAPTRNQPQAPGVEASGAGEARASTGSSDSSPGGHGTQVNVTCIVNVCSSSDHSSQCSSQASSTMGDTDSSPSESPKDEQVPFSKEECAFRSQLETPETLLGSTEEKPLPLGVPDAGMKPS
notes: domain: intracellular domain; Two-hybrid construct; also called p75-IC
B4: intracellular domain of the CD40 receptor (receptor, UniProt P25942 216-277, looked up)
chain: KKVAKKPTNKAPHPKQEPQEINFPDDLPGSNTAAPVQETLHGCQPVTQEDGKESRISVQERQ
notes: as for B1
B5: intracellular domain of the p55 TNF receptor (receptor, UniProt P19438 235-455, looked up)
chain: RYQRWKSKLYSIVCGKSTPEKEGELEGTTTKPLAPNPSFSPTPGFTPTLGFSPVPSSTFTSSSTYTPGDCPNFAAPRREVAPPYQGADPILATALASDPIPNPLQKWEDSAHKPQSLDTDDPATLYAVVENVPPLRWKEFVRRLGLSDHEIDRLELQNGRCLREAQYSMLATWRRRTPRREATLELLGRVLRDMDLLGCLEDIEEALCGPAALPPAPSLLR
notes: domain: intracellular domain; Two-hybrid construct; also called p55-IC
B6: RIP (other, UniProt Q13546 1-671, looked up)
chain: MQPDMSLNVIKMKSSDFLESAELDSGGFGKVSLCFHRTQGLMIMKTVYKGPNCIEHNEALLEEAKMMNRLRHSRVVKLLGVIIEEGKYSLVMEYMEKGNLMHVLKAEMSTPLSVKGRIILEIIEGMCYLHGKGVIHKDLKPENILVDNDFHIKIADLGLASFKMWSKLNNEEHNELREVDGTAKKNGGTLYYMAPEHLNDVNAKPTEKSDVYSFAVVLWAIFANKEPYENAICEQQLIMCIKSGNRPDVDDITEYCPREIISLMKLCWEANPEARPTFPGIEEKFRPFYLSQLEESVEEDVKSLKKEYSNENAVVKRMQSLQLDCVAVPSSRSNSATEQPGSLHSSQGLGMGPVEESWFAPSLEHPQEENEPSLQSKLQDEANYHLYGSRMDRQTKQQPRQNVAYNREEERRRRVSHDPFAQQRPYENFQNTEGKGTAYSSAASHGNAVHQPSGLTSQPQVLYQNNGLYSSHGFGTRPLDPGTAGPRVWYRPIPSHMPSLHNIPVPETNYLGNTPTMPFSSLPPTDESIKYTIYNSTGIQIGAYNYMEIGGTSSSLLDSTNTNFKEEPAAKYQAIFDNTTSLTDKHLDPIRENLGKHWKNCARKLGFTQSQIDEIDHDYERDGLKEKVYQMLQKWVMREGIKGATVGKLAQALHQCSRIDLLSSLIYVSQN
notes: Two-hybrid construct
B7: MORT1 (other, UniProt Q13158 1-208, looked up)
chain: MDPFLVLLHSVSSSLSSSELTELKFLCLGRVGKRKLERVQSGLDLFSMLLEQNDLEPGHTELLRELLASLRRHDLLRRVDDFEAGAAAGAAPGEEDLCAAFNVICDNVGKDWRRLARQLKVSDTKIDSIEDRYPRNLTERVRESLRIWKNTEKENATVAHLVGALRSCQMNLVADLVQEVQQARDLQNRSGAMSPMSWNSDASTSEAS
notes: Two-hybrid construct; also called FADD; MORT1/FADD
B8: TRADD (other, UniProt Q15628 1-312, looked up)
chain: MAAGQNGHEEWVGSAYLFVESSLDKVVLSDAYAHPQQKVAVYRALQAALAESGGSPDVLQMLKIHRSDPQLIVQLRFCGRQPCGRFLRAYREGALRAALQRSLAAALAQHSVPLQLELRAGAERLDALLADEERCLSCILAQQPDRLRDEELAELEDALRNLKCGSGARGGDGEVASAPLQPPVPSLSEVKPPPPPPPAQTFLFQGQPVVNRPLSLKDQQTFARSVGLKWRKVGRSLQRGCRALRDPALDSLAYEYEREGLYEQAFQLLRRFVQAEGRRATLQRLVEALEENELTSLAEDLLGLTDPNGGLA
notes: Two-hybrid construct
B9: Lymphotoxin beta receptor cDNA clones picked from the human B-cell library (two-hybrid prey, GAL4 activation domain fusion) (receptor, UniProt P36941 249-435, looked up, not shown: large carriers)
chain: KSHPSLCRKLGSLLKRRPQGEGPNPVAGSWEPPKAHPYFPDLVQPLLPISGDVSPVSTGLPAAPVLEAGVPQQQSPLDLTREPQLEPGEQSQVAHGTNGIHVTGGSMTITGNIYIYNGPVLGGPPGPGDLPATPEPPYPIPEEGDPGPPGLSTPHQEDGKAWHLAETEHCGATPSNRGPRNQFITHD
B10: TRAF2 cDNA clones picked from the human B-cell library (two-hybrid prey, GAL4 activation domain fusion) (other, not shown: large carriers)
chain: MAAASVTPPGSLELLQPGFSKTLLGTKLEAKYLCSACRNVLRRPFQAQCGHRYCSFCLASILSSGPQNCAACVHEGIYEEGISILESSSAFPDNAARREVESLPAVCPSDGCTWKGTLKEYESCHEGRCPLMLTECPACKGLVRLGEKERHLEHECPERSLSCRHCRAPCCGADVKAHHEVCPKFPLTCDGCGKKKIPREKFQDHVKTCGKCRVPCRFHAIGCLETVEGEKQQEHEVQWLREHLAMLLSSVLEAKPLLGDQSHAGSELLQRCESLEKKTATFENIVCVLNREVERVAMTAEACSRQHRLDQDKIEALSSKVQQLERSIGLKDLAMADLEQKVLEMEASTYDGVFIWKISDFARKRQEAVAGRIPAIFSPAFYTSRYGYKMCLRIYLNGDGTGRGTHLSLFFVVMKGPNDALLRWPFNQKVTLMLLDQNNREHVIDAFRPDVTSSSFQRPVNDMNIASGCPLFCPVSKMEAKNSYVRDDAIFIKAIVDLTGL
B11: protein encoded by new clone number 10, partial NIK (NIK 624-947) (two-hybrid prey, GAL4 activation domain fusion) (enzyme, not shown: large carriers)
chain: PLTAQAIQEGLRKEPIHRVSAAELGGKVNRALQQVGGLKSPWRGEYKEPRHPPPNQANYHQTLHAQPRELSPRAPGPRPAEETTGRAPKLQPPLPPEPPEPNKSPPLTLSKEESGMWEPLPLSSLEPAPARNPSSPERKATVPEQELQQLEIELFLNSLSQPFSLEEQEQILSCLSIDSLSLSDDSEKNPSKASQSSRDTLSSGVHSWSSQAEARSSSWNMVLARGRPTDTPSYFNGVKVQIQSLNGEHLHIREFHRVKVGDIATGISSQIPAAAFSLVTKDGQPVRYDMEVPDSGIDLQCTLAPDGSFAWSWRVKHGQLENRP
notes: also called clone 10; NMPI
B12: construct of the C-terminal part of the TRAF2 molecule, amino acids 222 to 501 (two-hybrid bait) (other)
chain: GCLETVEGEKQQEHEVQWLREHLAMLLSSVLEAKPLLGDQSHAGSELLQRCESLEKKTATFENIVCVLNREVERVAMTAEACSRQHRLDQDKIEALSSKVQQLERSIGLKDLAMADLEQKVLEMEASTYDGVFIWKISDFARKRQEAVAGRIPAIFSPAFYTSRYGYKMCLRIYLNGDGTGRGTHLSLFFVVMKGPNDALLRWPFNQKVTLMLLDQNNREHVIDAFRPDVTSSSFQRPVNDMNIASGCPLFCPVSKMEAKNSYVRDDAIFIKAIVDLTGL
notes: Covers the TRAF-domain and additional 42 amino acids; served as bait in two hybrid tests (fusion partner not spelled out for this construct); also called TRAF2 222-501; C-terminal construct comprising the TRAF domain
B13: construct of the N-terminal part of the TRAF2 molecule, amino-acids 1 to 221 (two-hybrid bait) (other)
chain: MAAASVTPPGSLELLQPGFSKTLLGTKLEAKYLCSACRNVLRRPFQAQCGHRYCSFCLASILSSGPQNCAACVHEGIYEEGISILESSSAFPDNAARREVESLPAVCPSDGCTWKGTLKEYESCHEGRCPLMLTECPACKGLVRLGEKERHLEHECPERSLSCRHCRAPCCGADVKAHHEVCPKFPLTCDGCGKKKIPREKFQDHVKTCGKCRVPCRFHAI
notes: Includes the Ring finger and zinc finger motifs; served as bait in two hybrid tests (fusion partner not spelled out for this construct); also called TRAF2 1-221

Biological target: full-length NIK (NF-kB inducing kinase) (human, UniProt Q99558 1-947)
Test: yeast two-hybrid (results not shown)

Binder	binding result
B1	no binding
B2	no binding
B3	no binding
B4	no binding
B5	no binding
B6	no binding
B7	no binding
B8	no binding

Biological target: T1, human TRAF2 in pGBT9 vector in conjunction with GAL4 DNA binding domain (two-hybrid bait) (human, UniProt P04386 1-147 (Saccharomyces cerevisiae entry))
T1 construct: Cloned by PCR from the first methionine to the stop codon; a short linker from the BamHI primer between GAL4 domain and TRAF2 is not spelled out; also called hTRAF2; full length TRAF2 molecule
Test: yeast two-hybrid with TRAF2 bait, lacZ (beta-galactosidase) colour development time
Experimental: Positive clones picked up in the two hybrid screen were subjected to lacZ color development test in SFY526 yeast cells, following Clontech Laboratories' manual (for details see above mentioned publications and patent applications). In brief, transformants were allowed to grow at 30° C. for 2-4 days until reaching about 2 mm in diameter, then were transferred onto Whatman filters. The filters went through a freeze/thaw treatment in order to permeabilize the cells, then soaked in a buffer (16.1 mg/ml Na_2HPO_4.7H_2O; 5.5 mg/ml NaH_2PO_4.H_2O; 0.75 mg/ml KCl; 0.75 mg/ml MgSO_4.7H_2O, pH=7) containing 0.33 mg/ml X-gal and 0.35 mM β-mercaptoethanol. Colonies were monitored for development of blue color which is an indication for induction of β-galactosidase.
The screen yielded approximately 2000 clones which were able to grow on Trp-, Leu-, His-3AT plates. DNA prepared from 165 randomly selected positive clones served for transient co-transfection of SFY526 yeast strain together with TRAF2 cloned into pGBT9 vector. Assay for β-galactosidase activity was performed on the transformed SFY526 yeast colonies as described in Materials and Methods (v). The blue color that developed was an indication for yeast colonies that contain cDNA encoding a protein or polypeptide that binds to TRAF2.

Binder	Color test
B9	10 min
B10	10 min
B11	15 min

Biological target: B11
Test: yeast two-hybrid specificity test with irrelevant baits

Binder	binding result
B3	no binding
B5	no binding
B7	no binding

Biological target: B11
Test: yeast two-hybrid, TRAF2 222-501 as bait
From the text: (§1) In order to narrow down the region on TRAF2 molecule which interact with clones 9, 10 and 15, two additional constructs were made. One construct comprised of the N-terminal part of the TRAF2 molecule, amino-acids 1 to 221, that included the Ring finger and the zinc finger motifs. The second construct included only the C-terminal part of the molecule, amino acids 222 to 501, covering the "TRAF-domain" and additional 42 amino acids. These two constructs were served as baits in two hybrid tests.

Binder	binding result
B12	binds

Biological target: B11
Test: yeast two-hybrid, TRAF2 1-221 as bait
From the text: as §1

Binder	binding result
B13	no binding

— patent US7485456 (YEDA RESEARCH AND DEVELOPMENT, dated 2009)
